Literature values, collected in PMC7527559.
Like-named read-outs stand apart in the source and are kept apart here.

Columns and labels:
[1] = biological target: RNA polymerase (Escherichia coli) (UniProt P0A7Z4)
[2] = biological target: RNA polymerase (Escherichia coli) (UniProt P0A7Z4); remark: listed apart in the source

Sequence of GreA (P0A6W5 whole entry): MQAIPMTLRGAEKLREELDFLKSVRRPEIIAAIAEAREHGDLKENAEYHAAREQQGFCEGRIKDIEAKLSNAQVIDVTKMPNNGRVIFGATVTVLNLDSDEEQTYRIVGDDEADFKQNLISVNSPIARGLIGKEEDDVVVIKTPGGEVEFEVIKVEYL
Sequence of DksA (P0ABS1 whole entry): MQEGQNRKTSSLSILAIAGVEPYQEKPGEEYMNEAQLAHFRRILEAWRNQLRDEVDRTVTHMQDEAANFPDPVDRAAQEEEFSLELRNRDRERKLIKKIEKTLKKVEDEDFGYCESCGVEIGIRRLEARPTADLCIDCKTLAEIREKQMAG

Row | Kd [1] [nM] | Kd [2] [nM] | Substance
1 | 100 |  | DksA (from UniProt P0ABS1)
2 |  | 800 | GreA (from UniProt P0A6W5)
